{"source": "paper PMC11039692", "about": "“SRY-Box transcription factor 9 triggers YAP nuclear entry via direct interaction in tumors” (Signal Transduction and Targeted Therapy, 2024)", "tested_on": "FLAG-YAP", "experiment": "In vitro protein pull-down assay", "type": "binding", "settings": "recombinant GST-SOX9 20 μM and FLAG-YAP 20 μM, FLAG beads, overnight at 4 °C", "method": "FLAG-YAP protein (20 μM) purified from SF9 was incubated with 20 μM GST-SOX9 protein (Abcam, ab131911), GST protein, or blank control in the presence of FLAG beads (Sigma-Aldrich, A2220) overnight at 4 °C. Following this, the beads were washed two times in binding and wash buffer (20 mM Tris [pH 8.0], 150 mM NaCl, 0.5% NP40, 0.5% TritonX-100, 1 mM DTT, and 10% glycerol), and one wash with high salt buffer (20 mM Tris [pH 8.0], 250 mM NaCl, 0.5% NP40, 0.5% TritonX-100, 1 mM DTT, and 10% glycerol). The slurry was boiled with SDS buffer and then subjected to immunoblot."}
{"molecule": "SOX9: recombinant GST-SOX9 protein (Abcam, ab131911) (protein) MNLLDPFMKMTDEQEKGLSGAPSPTMSEDSAGSPCPSGSGSDTENTRPQENTFPKGEPDLKKESEEDKFPVCIREAVSQVLKGYDWTLVPMPVRVNGSSKNKPHVKRPMNAFMVWAQAARRKLADQYPHLHNAELSKTLGKLWRLLNESEKRPFVEEAERLRVQHKKDHPDYKYQPRRRKSVKNGQAEAEEATEQTHISPNAIFKALQADSPHSSSGMSEVHSPGEHSGQSQGPPTPPTTPKTDVQPGKADLKREGRPLPEGGRQPPIDFRDVDIGELSSDVISNIETFDVNEFDQYLPPNGHPGVPATHGQVTYTGSYGISSTAATPASAGHVWMSKQQAPPPPPQQPPQAPPAPQAPPQPQAAPPQQPAAPPQQPQAHTLTTLSSEPGQSQRTHIKTEQLSPSHYSEQQQHSPQQIAYSPFNLPHYSPSYPPITRSQYDYTDHQNSSSYYSHAAGQGTGLYSTFTYMNPAQRPMYTPIADTSGVPSIPQTHSPQHWEQPVYTQLTRP", "values": [{"measurement": "direct interaction with YAP (pull-down)", "result": "demonstrated the direct interaction between SOX9 and YAP"}]}
